From article PMC4908583

What follows are substances tested against FPRL1 (formyl peptide receptor-like 1) inhibitory protein (FLIPr) (S. aureus) (UniProt Q2FZC0) (assay: BLI).
Sequence of FPRL1 (formyl peptide receptor-like 1) inhibitory protein (FLIPr) (S. aureus) (Q2FZC0 25-133): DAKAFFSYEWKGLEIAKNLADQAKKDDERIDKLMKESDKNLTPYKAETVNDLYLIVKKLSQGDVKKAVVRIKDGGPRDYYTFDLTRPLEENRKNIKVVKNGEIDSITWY

Row | Substance | Kd
1 | complement component 1q subcomponent C (C1QC) (from UniProt P02747 29-245) (natural protein) | 9.9 nM
2 | complement component 1q subcomponent A (C1QA) (from UniProt P02745 23-245) (natural protein) | 3.2 nM
3 | complement component 1q subcomponent B (C1QB) (from UniProt P02746 28-253) (natural protein) | 2.1 nM
